Measured values from patent US20190365916A1 (Bayer, published 2019).
Where two headings read alike, the source gives them in different places.

Assays:
[1] = biological target: T1, surface receptor CD123 (IL3RA) (human, UniProt P26951 19-378); assay: cell-based or functional assay
[2] = biological target: T1, surface receptor CD123 (IL3RA); assay: cell binding assay, CypHer 5E-labelled against unlabelled antibody
[3] = biological target: T1, surface receptor CD123 (IL3RA); assay: cell-based or functional assay; remark: listed apart in the source
[4] = biological target: T2, receptor protein CXCR5 (CD185) (human, UniProt P32302 1-372); assay: cell-based or functional assay
T2 sequence: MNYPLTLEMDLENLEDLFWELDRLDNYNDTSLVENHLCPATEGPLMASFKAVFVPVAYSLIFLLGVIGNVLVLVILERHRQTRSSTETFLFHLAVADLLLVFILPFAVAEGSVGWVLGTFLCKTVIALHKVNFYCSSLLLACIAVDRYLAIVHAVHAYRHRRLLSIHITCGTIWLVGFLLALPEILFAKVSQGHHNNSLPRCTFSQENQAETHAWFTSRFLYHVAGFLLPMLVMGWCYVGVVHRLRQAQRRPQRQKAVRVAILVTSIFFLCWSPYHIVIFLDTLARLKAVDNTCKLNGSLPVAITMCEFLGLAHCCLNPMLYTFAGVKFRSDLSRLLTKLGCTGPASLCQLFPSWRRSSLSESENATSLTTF

[5] = biological target: T2, receptor protein CXCR5 (CD185); assay: cell-based or functional assay; remark: listed apart in the source
[6] = biological target: T2, receptor protein CXCR5 (CD185); assay: cell binding assay, CypHer 5E-labelled against unlabelled antibody

T1 sequence (P26951 19-378 limits assumed): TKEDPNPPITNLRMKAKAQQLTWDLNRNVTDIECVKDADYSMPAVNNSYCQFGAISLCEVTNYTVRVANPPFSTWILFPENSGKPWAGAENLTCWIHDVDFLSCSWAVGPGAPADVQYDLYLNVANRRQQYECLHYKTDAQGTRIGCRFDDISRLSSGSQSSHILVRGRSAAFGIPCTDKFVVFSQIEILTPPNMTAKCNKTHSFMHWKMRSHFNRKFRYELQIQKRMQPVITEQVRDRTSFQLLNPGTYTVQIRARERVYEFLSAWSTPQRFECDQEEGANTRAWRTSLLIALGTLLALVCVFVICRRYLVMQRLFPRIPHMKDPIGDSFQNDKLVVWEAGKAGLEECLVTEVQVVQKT

B1: ADC Example 1c-8987 (anti-CD123 TPP-8987 coupled with Intermediate F325) (antibody, human IgG1, kappa, V domains shown)
VH: QVQLVQSGAEVKKPGSSVKVSCKASGGTFSDYYMKWVRQAPGQGLEWMGDIIPSNGATFYNQKFKGQVTITADESTSTAYMELSSLRSEDTAVYYCARSHLLRASWFAYWGQGTLVTVSS
VL: DIVMTQSPDSLAVSLGERATINCESSQSVLNSGNQKNYLTWYQQKPGQPPKLLIYWASTRESGVPDRFSGSGSGTDFTLTISSLQAEDVAVYYCQNDYSYPYTFGQGTKLEIKR
modifications: KSP inhibitor toxophore-linker of formula (I) (from Intermediate F325) on sulfur atoms of cysteine side chains of the partially reduced antibody; DAR 3.7; positions not given
IC50 [M] of growth inhibition, MTT assay, MOLM-13 cells (CD123-positive) [1]: 2.1e-10 M
IC50 [M] of growth inhibition, MTT assay, MV-4-11 cells (CD123-positive) [1]: 1.26e-09 M

B2: anti-CD123 antibody TPP-8987 (antibody, human IgG1, kappa, V domains shown)
VH: QVQLVQSGAEVKKPGSSVKVSCKASGGTFSDYYMKWVRQAPGQGLEWMGDIIPSNGATFYNQKFKGQVTITADESTSTAYMELSSLRSEDTAVYYCARSHLLRASWFAYWGQGTLVTVSS
VL: DIVMTQSPDSLAVSLGERATINCESSQSVLNSGNQKNYLTWYQQKPGQPPKLLIYWASTRESGVPDRFSGSGSGTDFTLTISSLQAEDVAVYYCQNDYSYPYTFGQGTKLEIKR
notes: Humanized anti-CD123 IgG; In the internalization assays it carried CypHer 5E dye on lysines
binding result [2]: binds

B3: reference ADC R1c-8987 (anti-CD123 TPP-8987 coupled with Intermediate F104) (antibody, human IgG1, kappa, V domains shown)
VH: QVQLVQSGAEVKKPGSSVKVSCKASGGTFSDYYMKWVRQAPGQGLEWMGDIIPSNGATFYNQKFKGQVTITADESTSTAYMELSSLRSEDTAVYYCARSHLLRASWFAYWGQGTLVTVSS
VL: DIVMTQSPDSLAVSLGERATINCESSQSVLNSGNQKNYLTWYQQKPGQPPKLLIYWASTRESGVPDRFSGSGSGTDFTLTISSLQAEDVAVYYCQNDYSYPYTFGQGTKLEIKR
modifications: reference KSP inhibitor toxophore-linker (from Intermediate F104) on sulfur atoms of cysteine side chains of the partially reduced antibody; DAR 1.5; positions not given
IC50 [M] of growth inhibition, MTT assay, MOLM-13 cells (CD123-positive) [3]: 7.57e-08 M
IC50 [M] of growth inhibition, MTT assay, MV-4-11 cells (CD123-positive) [3]: 1.33e-07 M

B4: ADC Example 1c-9476 (anti-CD123 TPP-9476 coupled with Intermediate F325) (antibody, human IgG1, kappa, V domains shown)
VH: QVQLVQSGAEVKKPGSSVKVSCKASGGTFSDYYMKWVRQAPGQGLEWMGDIIPSNGATFYNQKFKGRVTITADESTSTAYMELSSLRSEDTAVYYCARSHLLRASWFAYWGQGTLVTVSS
VL: DIVMTQSPDSLAVSLGERATINCESSQSVLNSGNQKNYLTWYQQKPGQPPKLLIYWASTRESGVPDRFSGSGSGTDFTLTISSLQAEDVAVYYCQNDYSYPYTFGQGTKLEIKR
modifications: KSP inhibitor toxophore-linker of formula (I) (from Intermediate F325) on sulfur atoms of cysteine side chains of the partially reduced antibody; DAR 3.1; positions not given
IC50 [M] of growth inhibition, MTT assay, MOLM-13 cells (CD123-positive) [1]: 2.85e-10 M
IC50 [M] of growth inhibition, MTT assay, MV-4-11 cells (CD123-positive) [1]: 2.78e-09 M

B5: reference ADC R1c-9476 (anti-CD123 TPP-9476 coupled with Intermediate F104) (antibody, human IgG1, kappa, V domains shown)
VH: QVQLVQSGAEVKKPGSSVKVSCKASGGTFSDYYMKWVRQAPGQGLEWMGDIIPSNGATFYNQKFKGRVTITADESTSTAYMELSSLRSEDTAVYYCARSHLLRASWFAYWGQGTLVTVSS
VL: DIVMTQSPDSLAVSLGERATINCESSQSVLNSGNQKNYLTWYQQKPGQPPKLLIYWASTRESGVPDRFSGSGSGTDFTLTISSLQAEDVAVYYCQNDYSYPYTFGQGTKLEIKR
modifications: reference KSP inhibitor toxophore-linker (from Intermediate F104) on sulfur atoms of cysteine side chains of the partially reduced antibody; DAR 3.1; positions not given
IC50 [M] of growth inhibition, MTT assay, MOLM-13 cells (CD123-positive) [3]: 3.04e-10 M
IC50 [M] of growth inhibition, MTT assay, MV-4-11 cells (CD123-positive) [3]: 5.3e-09 M

B6: anti-CD123 antibody TPP-9476 (antibody, human IgG1, kappa, V domains shown)
VH: QVQLVQSGAEVKKPGSSVKVSCKASGGTFSDYYMKWVRQAPGQGLEWMGDIIPSNGATFYNQKFKGRVTITADESTSTAYMELSSLRSEDTAVYYCARSHLLRASWFAYWGQGTLVTVSS
VL: DIVMTQSPDSLAVSLGERATINCESSQSVLNSGNQKNYLTWYQQKPGQPPKLLIYWASTRESGVPDRFSGSGSGTDFTLTISSLQAEDVAVYYCQNDYSYPYTFGQGTKLEIKR
notes: as for B2
binding result [2]: binds

B7: reference ADC R1x-9024 (anti-CXCR5 TPP-9024 coupled with Intermediate F104) (antibody, human IgG1, kappa, V domains shown)
VH: EVQLVESGGGLVQPGKSLKLSCSASGFTFSTSGMHWFRQAPGKGLDWVAYISSSSGFVYADAVKGRFTISRDNAQNTLYLQLNSLKSEDTAIYYCARSEAAFWGQGTLVTVSS
VL: DIVLTQAPRSVSVTPGESASISCRSNKSRLSRMGITPLNWYLQKPGKSPQLLIYRMSNLASGVPDRFSGSGSETDFTLKISKVETEDVGVYYCAQFLEYPPTFGSGTKLEIKR
modifications: reference KSP inhibitor toxophore-linker (from Intermediate F104) on sulfur atoms of cysteine side chains of the partially reduced antibody; DAR 3.7; positions not given
IC50 [M] of growth inhibition, MTT assay, Rec-1 cells (CXCR5-positive) [4]: 1.84e-10 M

B8: ADC Example 1x-9024 (anti-CXCR5 TPP-9024 coupled with Intermediate F325) (antibody, human IgG1, kappa, V domains shown)
VH: EVQLVESGGGLVQPGKSLKLSCSASGFTFSTSGMHWFRQAPGKGLDWVAYISSSSGFVYADAVKGRFTISRDNAQNTLYLQLNSLKSEDTAIYYCARSEAAFWGQGTLVTVSS
VL: DIVLTQAPRSVSVTPGESASISCRSNKSRLSRMGITPLNWYLQKPGKSPQLLIYRMSNLASGVPDRFSGSGSETDFTLKISKVETEDVGVYYCAQFLEYPPTFGSGTKLEIKR
modifications: KSP inhibitor toxophore-linker of formula (I) (from Intermediate F325) on sulfur atoms of cysteine side chains of the partially reduced antibody; DAR 3.8; positions not given
IC50 [M] of growth inhibition, MTT assay, Rec-1 cells (CXCR5-positive) [5]: 1.34e-10 M

B9: anti-CXCR5 antibody TPP-9024 (antibody, human IgG1, kappa, V domains shown)
VH: EVQLVESGGGLVQPGKSLKLSCSASGFTFSTSGMHWFRQAPGKGLDWVAYISSSSGFVYADAVKGRFTISRDNAQNTLYLQLNSLKSEDTAIYYCARSEAAFWGQGTLVTVSS
VL: DIVLTQAPRSVSVTPGESASISCRSNKSRLSRMGITPLNWYLQKPGKSPQLLIYRMSNLASGVPDRFSGSGSETDFTLKISKVETEDVGVYYCAQFLEYPPTFGSGTKLEIKR
notes: In the internalization assays it carried CypHer 5E dye on lysines
binding result [6]: binds
